US20100160262

Target: enzymatically [3H] acetylated histone H3 peptide (amino acids 1-24) (UniProt P68431)

Substance: human SIRT2 with a C-terminal FLAG tag
- standard histone deacetylase assay (radioactive, H3 peptide substrate): These enzymes also deacetylate histones as determined in a standard histone deacetylase assay
